The text below walks through data of IntAct's records for PubMed 17595167.

B1: PAN2-PAN3 deadenylation complex subunit PAN3 (Homo sapiens), Q58A45 (parent)
chain: MNSGGGLPPPSAAASPSSSSLAAAVAVVAPPGVGGVPGGAAVGVKLKYCRYYAKDKTCFYGEECQFLHEDPAAGAAPGLGLHSNSVPLALAGAPVAGFPPGAVAGGGAGPPPGPKKPDLGDPGTGAAAGGGGSSGGLDGPRLAIPGMDGGALTDTSLTDSYFSTSFIGVNGFGSPVETKYPLMQRMTNSSSSPSLLNDSAKPYSAHDPLTSPASSLFNDFGALNISQRRKPRKYRLGMLEERLVPMGSKARKAKNPIGCLADRCKSGVPINMVWWNRVTENNLQTPNPTASEFIPKGGSTSRLSNVSQSNMSAFSQVFSHPSMGSPATAGLAPGMSLSAGSSPLHSPKITPHTSPAPRRRSHTPNPASYMVPSSASTSVNNPVSQTPSSGQVIQKETVGGTTYFYTDTTPAPLTGMVFPNYHIYPPTAPHVAYMQPKANAPSFFMADELRQELINRHLITMAQIDQADMPAVPTEVDSYHSLFPLEPLPPPNRIQKSSNFGYITSCYKAVNSKDDLPYCLRRIHGFRLVNTKCMVLVDMWKKIQHSNIVTLREVFTTKAFAEPSLVFAYDFHAGGETMMSRHFNDPNADAYFTKRKWGQHEGPLPRQHAGLLPESLIWAYIVQLSSALRTIHTAGLACRVMDPTKILITGKTRLRVNCVGVFDVLTFDNSQNNNPLALMAQYQQADLISLGKVVLALACNSLAGIQRENLQKAMELVTINYSSDLKNLILYLLTDQNRMRSVNDIMPMIGARFYTQLDAAQMRNDVIEEDLAKEVQNGRLFRLLAKLGTINERPEFQKDPTWSETGDRYLLKLFRDHLFHQVTEAGAPWIDLSHIISCLNKLDAGVPEKISLISRDEKSVLVVTYSDLKRCFENTFQELIAAANGQL

In this test the parent is B1. Particulars: with pabp1_human PABPC1, P11940.
pabp1_human PABPC1, P11940, sequence (P11940 whole entry): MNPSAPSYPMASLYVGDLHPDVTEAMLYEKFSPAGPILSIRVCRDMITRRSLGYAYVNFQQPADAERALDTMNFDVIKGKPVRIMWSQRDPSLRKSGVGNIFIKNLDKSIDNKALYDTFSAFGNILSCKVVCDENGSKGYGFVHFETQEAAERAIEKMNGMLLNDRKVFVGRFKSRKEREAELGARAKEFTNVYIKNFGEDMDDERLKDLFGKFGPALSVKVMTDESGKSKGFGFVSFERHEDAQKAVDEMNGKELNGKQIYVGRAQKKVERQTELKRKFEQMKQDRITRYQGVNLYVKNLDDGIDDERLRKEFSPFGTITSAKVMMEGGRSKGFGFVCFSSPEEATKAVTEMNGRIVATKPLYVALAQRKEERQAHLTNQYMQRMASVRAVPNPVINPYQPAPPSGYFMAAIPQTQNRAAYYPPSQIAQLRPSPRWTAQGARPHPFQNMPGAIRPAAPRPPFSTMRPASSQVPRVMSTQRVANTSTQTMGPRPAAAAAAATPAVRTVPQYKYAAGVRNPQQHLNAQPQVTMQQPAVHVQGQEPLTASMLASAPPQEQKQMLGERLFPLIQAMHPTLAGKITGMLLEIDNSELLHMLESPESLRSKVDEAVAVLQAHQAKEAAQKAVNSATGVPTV
With F293A, the “effect of a mutation on the interaction” value is recorded as “decreasing interaction”.
